The target of the assay is 6His-CaM7 (Arabidopsis thaliana), P59220. As to the kind of experiment: ITC at 25 C, peptide titrated into 6His-CaM7, 1 mM Ca2+.

DQQQNHDSSSMRSTRLQRFLSL (modifications not checked) [CBD peptide] returned a stoichiometry (peptide per CaM7) of 1.

Source of the values: patent publication US20250270584A1, “Gene editing to provide insect resistance in crops” (The Regents of the University of California, priority 2022, published 2025).
